In paper PMC5051949, “Mechanism of Rifampicin Inactivation in Nocardia farcinica” (PLoS ONE, 2016):

Columns and labels:
[1] = molecular target: T1, RifMO (rifampicin monooxygenase) (Nocardia farcinica, UniProt Q5YTV5); experiment: steady-state oxygen consumption (oxygraph); type: biochemical; conditions: substrate inhibition by NADPH; 30 μM Rif, 100 mM sodium phosphate pH 7.5, 25°C
T1 construct: gene rox; full-length, codon optimized, pET15b N-terminal 6xHis tag cleaved with thrombin, expressed in E. coli
Source text: (§1) steady-state oxygen consumption (oxygraph) on RifMO (rifampicin monooxygenase)

[2] = molecular target: T1, RifMO (rifampicin monooxygenase); experiment: flavin absorbance change at […] nm (spectral titration); type: binding
[3] = test system: NC(=O)C1=CN([C@@H]2O[C@H](COP(=O)(O)OP(=O)(O)OC[C@H]3O[C@@H](n4cnc5c(N)ncnc54)[C@H](O)[C@@H]3O)[C@@H](O)[C@H]2O)C=CC1; experiment: steady-state oxygen consumption (oxygraph); type: biochemical, Nocardia farcinica; conditions: 30 μM Rif, 100 mM sodium phosphate pH 7.5, 25°C, varied: cofactor
Source text: as §1

[4] = test system: CO[C@H]1/C=C/O[C@@]2(C)Oc3c(C)c(O)c4c(O)c(c(/C=N/N5CCN(C)CC5)c(O)c4c3C2=O)NC(=O)/C(C)=C\C=C\[C@H](C)[C@H](O)[C@@H](C)[C@@H](O)[C@@H](C)[C@H](OC(C)=O)[C@@H]1C; experiment: steady-state oxygen consumption (oxygraph); type: biochemical, Nocardia farcinica; conditions: 1 mM NADPH, 100 mM sodium phosphate pH 7.5, 25°C
Source text: as §1

[5] = test system: NC(=O)C1=CN([C@@H]2O[C@H](COP(=O)(O)OP(=O)(O)OC[C@H]3O[C@@H](n4cnc5c(N)ncnc54)[C@H](OP(=O)(O)O)[C@@H]3O)[C@@H](O)[C@H]2O)C=CC1; experiment: steady-state oxygen consumption (oxygraph); type: biochemical, Nocardia farcinica; conditions: 30 μM Rif, 100 mM sodium phosphate pH 7.5, 25°C, varied: cofactor
Source text: as §1

T1 sequence (Q5YTV5 whole entry): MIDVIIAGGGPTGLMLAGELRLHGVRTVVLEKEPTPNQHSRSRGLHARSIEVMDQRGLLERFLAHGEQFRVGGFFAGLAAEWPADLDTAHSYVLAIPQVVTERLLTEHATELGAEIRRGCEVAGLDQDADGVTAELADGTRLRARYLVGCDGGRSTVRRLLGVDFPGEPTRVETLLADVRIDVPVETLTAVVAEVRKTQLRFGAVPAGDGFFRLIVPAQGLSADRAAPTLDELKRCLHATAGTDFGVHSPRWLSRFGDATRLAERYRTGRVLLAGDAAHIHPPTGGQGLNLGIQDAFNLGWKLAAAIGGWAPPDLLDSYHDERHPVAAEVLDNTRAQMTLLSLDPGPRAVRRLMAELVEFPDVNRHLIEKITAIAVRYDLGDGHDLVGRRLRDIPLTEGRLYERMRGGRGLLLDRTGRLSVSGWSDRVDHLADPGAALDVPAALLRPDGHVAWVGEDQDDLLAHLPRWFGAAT

NC(=O)C1=CN([C@@H]2O[C@H](COP(=O)(O)OP(=O)(O)OC[C@H]3O[C@@H](n4cnc5c(N)ncnc54)[C@H](OP(=O)(O)O)[C@@H]3O)[C@@H](O)[C@H]2O)C=CC1 [NADPH]
KI [1]: 33000 ± 4000 µM

CO[C@H]1/C=C/O[C@@]2(C)Oc3c(C)c(O)c4c(O)c(c(/C=N/N5CCN(C)CC5)c(O)c4c3C2=O)NC(=O)/C(C)=C\C=C\[C@H](C)[C@H](O)[C@@H](C)[C@@H](O)[C@@H](C)[C@H](OC(C)=O)[C@@H]1C [Rif, rifampicin]
Kd [2]: 9.5 ± 2.5 µM

RifMO (rifampicin monooxygenase) (Nocardia farcinica IFM 10152)
Km [3]: 266 ± 25 µM
kcat [3]: 3.3 ± 0.06 s⁻¹
kcat/Km [3]: 12600 ± 1000 M⁻¹ s⁻¹
Km [4]: 5.8 ± 0.88 µM
kcat [4]: 4 ± 0.16 s⁻¹
kcat/Km [4]: 700000 ± 81300 M⁻¹ s⁻¹
Km [5]: 90 ± 10 µM
kcat [5]: 4 ± 0.1 s⁻¹
kcat/Km [5]: 43100 ± 3700 M⁻¹ s⁻¹
